System: MS2 coat protein
Assay: apparent KD of MS2 coat protein; designed switch direction (-1 OFF switch, 1 ON switch): 1; higher = weaker reporter binding
Procedure, shortened: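 RNA switches sharing common flanks were transcribed by stalled E. coli RNA polymerase on Illumina chips. A doubling series of SNAP-549-labelled MS2 coat protein, from 0.7 or 1.5 nM to 3 µM, was applied in Tris-HCl pH 7.5 buffer with KCl, MgCl2, BSA, DTT, tRNA and Tween-20. Each step lasted 0.8–1.5 h at the bottom of the series and 10–20 min at the top. Normalised cluster fluorescence was curve-fitted, giving apparent KD as the per-design median over clusters.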

[1] = input ligand: microRNA oligo, concentration not stated
[2] = Eterna round: R95, input ligand: FMN 200 uM
[3] = Eterna round: R95, input ligand: microRNA oligo, concentration not stated
[4] = Eterna round: R95, input ligand: none

| Sequence | apparent KD of MS2 coat protein (input ligand: FMN 200 uM) [µM] | apparent KD of MS2 coat protein [1] [µM] | apparent KD of MS2 coat protein (input ligand: none) [µM] | apparent KD of MS2 coat protein [2] [µM] | apparent KD of MS2 coat protein [3] [µM] | apparent KD of MS2 coat protein [4] [µM] |
| --- | --- | --- | --- | --- | --- | --- |
| AAAAUAAAAUAAAAGGAUAUAAAAUAAAAUACAUGAGGAUCACCCAUGUAUAAAAUAAAAAAAUAAAAGAAGGAAUAAAAAUAAA [SS2 504: MS2 4] (Eterna round: R96, puzzle: Same State 2) | 0.0283 | 0.0229 | 0.0267 | – | – | – |
| AAAAUGGUAUGUUACAUGAGGAUCACCCAUGUACUCUCCUCUGAGGAUAUGGGAAUGUUGAAAAACCAGAAGGCAGACAUCCAA [AK SSNG3-V2-22] (Eterna round: R96, puzzle: Same State NG 3) | 0.139 | 0.177 | 0.192 | – | – | – |
| AAACACAGCAUAACGCCGUGACAUGAGGAUCACCCAUGUACACAGGAUAUCAUGGCAUAACGCCAUGAGAAGGGUGAUCAAGAC [Raorma] (Eterna round: R96, puzzle: Same State NG 3) | 0.732 | 0.077 | 0.0788 | – | – | – |
| AAAGCACAUGAGGAUCACCCAUGUGGAAAUAACACAGGAUAUCUGACCGAAACUAAGGCGAGAGAAGGGUGACCUA [Engeerbi] (puzzle: Same State 1) | – | – | – | 0.148 | 0.0628 | 0.0789 |
| AAAGGAUGAUGUUACAUGAGGAUCACCCAUGUUGUGAUAACUAAGGAUAUGUGUUUAACUAGUUAAUAGAAGGUAGGAUCAUAA [AK SSNG3-V2-3] (Eterna round: R96, puzzle: Same State NG 3) | 0.15 | 0.0842 | 0.118 | – | – | – |
| AAAUAGCAUGGAAACAUGCUAAAAACUGUACAUGAGGAUCACCCAUGUCAUGUGUAGGCUUUUUGUUCGUCUUAUAA [Effort 12] (Eterna round: R96, puzzle: Sensor for hsa-mir-208a) | 0.0255 | 0.0123 | 0.0278 | – | – | – |
| AAAUGUAGGAAACAACAGCAAGAGCAUGUACAUGAGGAUCACCCAUGUCAUGUACAAGCUUUUUGCUGGUCUUAUUA [ak 2 mod of one Eli's designs..] (puzzle: Sensor for hsa-mir-208a) | – | – | – | 0.0237 | 0.031 | 0.0196 |
| AACAAAUACACAGGAUAUACAGUGGCAACCACUGUAGAAGGGUGGGCGGGUUCCAACAUGAGGAUCACCCAUGUACCCAAUAAC [Atbiladi] (Eterna round: R96, puzzle: Same State NG 1) | 0.521 | 0.535 | 0.882 | – | – | – |
| AACAUGAGGAUCACCCAUGUCAGGCCGCCGGCCUACAUGAGGAAGGAUAUAGCCUCGAAAAUUGGCUAGAAGGUCCUCAUGAAU [Letemaar] (Eterna round: R96, puzzle: Same State NG 3) | 0.115 | 0.00424 | 0.0261 | – | – | – |
| AACCGACAUGAGGAUCACCCAUGUAAAUGCAGGGCAGGAUAUCAAUCGGGAGGCCGAAAAUGAGAAGGGCCUAAAA [Onedte] (puzzle: Same State 1) | – | – | – | 0.0469 | 0.25 | 0.839 |
| AACCGGGAGAAGCAGGAUAUUGCCUCUUCAACAUGAGGAUCACCCAUGUAAGUAAAUUGACGAUACAAGAAGGGCUGCUCCUUAC [Raatgees] (Eterna round: R96, puzzle: Same State 2) | – | 0.0791 | – | – | – | – |
| AACGUGGGCUAGCAGGAUAUACUGCGAGUAACAUGAGGAUCACCCAUGUUGUCCCGCAAGACAAUGUAGAAGGGCUGAUACCGCG [Atatlaor] (puzzle: Same State 2) | – | – | – | 0.0181 | 0.0284 | 0.0265 |
| AAGAAAGUUUACGAGGAUAUGUUCCGCAUAACAUGAGGAUCACCCAUGUGAACAAGAAAGGCGACGCAGAAGGCGUGAGCAAAGA [Atanansori] (Eterna round: R96, puzzle: Same State 2) | 0.0424 | 0.152 | 0.219 | – | – | – |
| AAGAAGACGGACAAGGAUAUGUCAAAGGAAACAUGAGGAUCACCCAUGUGGAGAUUGGAAAAGAAACAGAAGGUGUACGGAGAGA [JR_SS2_Sub007] (puzzle: Same State 2) | – | – | – | 0.0106 | 0.0123 | 0.0293 |
| AAGAGAGGAAGCGAGGAUAUCGUGGGAGGGACAUGAGGAUCACCCAUGUAGGAUGUUGAGAGGAACGAGAAGGCGCAGGAAAGAA [JR_SS2_Sub074] (puzzle: Same State 2) | – | – | – | 0.0874 | 0.0733 | 0.0961 |
